Experimental findings from PMC7148328 are described below.

The target in this data set is T1, His-Dbv6 (Nonomuraea gerenzanensis) (UniProt Q7WZ85).
T1 sequence: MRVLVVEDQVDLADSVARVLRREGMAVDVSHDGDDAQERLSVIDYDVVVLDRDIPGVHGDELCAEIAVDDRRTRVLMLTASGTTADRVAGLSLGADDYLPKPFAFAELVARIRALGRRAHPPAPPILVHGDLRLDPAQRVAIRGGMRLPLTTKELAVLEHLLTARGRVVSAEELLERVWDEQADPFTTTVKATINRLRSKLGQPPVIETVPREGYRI
Nature of the data set: EMSA. Particulars: 12.5 mM Tris-HCl pH 7.5, 10% glycerol, 62.5 mM KCl, 0.75 mM DTT, 5 mM MgCl2, 20 uL, 4 C; 2.8-14 ug Dbv6 (legend: 0.5-2 mM), 100 ng DNA (legend: …). On the technique in general: Mobility shift assays separate free from complexed probe on a gel.
As for “CCTTCAGCAAACCTCCGAACGGCGACACTATGGCCATGCGGGACTCCTCTCACACGCGCACGCAAGTCAGCGACCTCAATCGTGCTGAGCGGAGCCGATGTCCACGAGTGGGTCCAACTGAACAGTTCGCGCGCTTGGACGCGTTCACCGGTGGTGGTGACCAAGCGTTCACCTGGAC (double strand) [updbv23]”, the binding entry is “binds”.
With “CATTCGTGTCGCCGTCTCGATCGGGGGCTGTCAGTCTGACACCATAGCTCGCGTCCGGTCGATCCTCGAGTTGCCGTCGGGGACGGGCGGGACGTGCCAGCCGTGGAAGCGCAGTGCCTCGGTGAGCCGGCCGGTGTCCTCCGGGCGCACGGAGACCTCGACCA (double strand) [updbv6]” the entry was “no binding”; with “GCATCGGTCTTATCCGAAACTAGGGGGGTGGATGTCCGGGATAGGGGGTGGTTCGACCTGCACAGCCTCCTTTAACCTTCCGGAGGAAGGCCTAACCGAAAGTCGGAGTGATCGGAATGCTAACGGGAAGCGTTCTGCAATTCGATGAGGTAGACGGCTACGGATTCGCGGCGACAGCGTCCAATTCTTTGCCGCGTGGAGTTGCCGAAGAAAAGAGGATGCGACG (double strand) [updbv4]”, “binds”; with “TGAAGGCGACGATCAACCGGCTGCGCTCGAAGCTCGGCCAGCCGCCGGTGATCGAAACCGTCCCGCGCGAGGGATATCGCATCTGATCCGCGCGGTCACAGAGCGGTCACACGTTCTCTGACCCTCGTGTCACCTTCTGCTCCGTAGAACTGGTGTCAGATCACCAGACTGGAGGAGAGGGATGAGGA (double strand) [updbv7]”, “binds”.
As to “GCAGGTCGGAAGGGACATCTGTTCGGTGGGTGCCGGGCGCTCCATGGCAACTCCCGCGTCATCGAGGTGCTGCGCAGCCCTCGAAGGTCGCACCCGCGGACGAGAGCCTGCTTGATCGCAAGCGTGCTCAACGGACTCGATGTCTACAAGCCGGTCCAGGTGAACGCTTGGTCAC (double strand) [updbv24]”, the binding entry is listed as “binds”.
In the case of “GCAGGAATGGGAAAGGATCTTGCGCGGAGTGCCGCCGCATTGGGGCACCGTTGTCGCGAGATGCGCCAGGGATCATGCCCAGATCTGGGCAGCGTTCGCGGATCGCCTGGAGGGGCGGGCGACCGATCTGGCCGCTGGATGAGCACGAGTGGATGAGCCGGGCGGCCGTATGTAGAGCGACGGGACCAGGACCAGATCAGGCACACGGCAAACCAAGTCGACGAACCGCTTGGGGGACGAGCAAGAGTGCTGTTCGGGCGAGATCGTGAACTGAAGAGTCTGACGAGGTTGCTCGATTC (double strand) [updbv3]”, the binding entry is “binds”.
